Molecular target: T1, CD80-Ig (extracellular domain of CD80 fused with the constant region of mouse IgG1 heavy chain) (mouse)
T1 construct: extracellular domain; also called B7-1
Assay: SPR (BIACORE), direct binding to immobilized CD80-Ig, linear regression plot
Procedure: Binding experiments were performed by surface plasmon resonance (SPR) on an instrument sold under the trademark BIACORE™ from Pharmacia Biosensor (Uppasala, Sweden). All experiments were performed at 37° C. using HBS-EP buffer (25 mM Hepes, pH7.4, […], 3.4 mM EDTA and, 005% surfactant P20) supplied by Pharmacia Biosensor.
CD80-Ig (extracellular domain of CD80 fused with the constant region of mouse IgG1 heavy chain) at 35 µg/ml in 10 mM sodium acetate buffer, pH 4.2, was coupled to a research grade CM 5 sensor chip using a standard amine coupling procedure with the following modifications (38). To reduce the immobilization level of the ligand, the surface was activated for 3 (instead of 7) minutes with N-hydroxysuccinamide and […]. […] Following coupling, noncovalently bound ligand was removed by washing twice with 5 mM NaOH.
Data for both k_a and k_d are quite consistent over the entire range of concentrations used. The difference between experimental and calculated data for both EL CD28 and RI CD28 peptide mimetics estimated by Chi^2 value is low being close to the noise level of the instrument. A linear regression plot of the rate of change in the response against response units was plotted using these values of k_a and k_d for each CD28 peptide analyte.

- Kd: 2440 nM
Binder: H-KIEFMYPPPYLDNERSNGTI-OH (also called Free L peptide) [L-CD28 (free L CD28 peptide mimetic)]

Reference: patent US7220822 (OHIO STATE UNIVERSITY, dated 2007)
